In patent US20040137000A1 (UNITED BIOMEDICAL, published 2004):

What was measured:
[1] = target: CD4 on the surface of host T cells (HIV receptor complex involving CD4) (UniProt P01730 26-458, limits assumed); experiment: cell-based or functional assay
[2] = target: T1, recombinant soluble CD4 (rsCD4) (UniProt P01730 26-396, limits assumed); experiment: ELISA on rsCD4
T1 construct: Bought reagent coated on ELISA plates at 0.25 µg/ml; also called solid-phase rsCD4

[3] = target: T1, recombinant soluble CD4 (rsCD4); experiment: ELISA, rsCD4 coated at 0.25 µg/ml
Excerpt: Tween® 20 in PBS. Various dilutions of the chimeric antibody and the mouse antibody as the positive control were applied. Detection was with peroxidase conjugated goat anti-human IgG and sheep anti-mouse for chimeric and mouse antibodies respectively. Color was developed with OPD.
Both the chimeric and mouse antibodies provided increases in A₄₉₂ at all concentrations of antibodies when added to the solid-phase rsCD4. This assay confirmed that the cloned and sequenced heavy and light chain variable regions retained the correct recognition site.

B1: deimmunized B4 antibody DIVHv.4/VKv.3 produced by NS0 cells (antibody, human IgG1, V domains shown)
VH: QVQLVQSGAEVKKPGASVKVSCKASGYTFTDYVIHWVRQATGQGLEWIGEIYPGSGSAYSNSKFKDRVTITADKSTNTAYMELRSLRSDDTAVYFCARRGNGTGFAYWGQGTLVTVSS
VL: DIVLTQSPASLAVSPGQRATITCKAGQSVDYDGDSYMNWYQQKPGQPPKLLIYVASNLESGIPSRFSGSGSGTDFTLTINPVEENDTATYYCQQSYKDPLAFGPGTKVEIK
notes: Human IgG1 and human kappa constant regions; NS0 cells; also called DIVHv.4/V v.3
- Antibody Conc (µg/ml) at 50% Inhibition; MT-2 microplaque neutralization, HIV-1 TH036 (PBL), clade E [1]: 0.63 µg/mL
- Antibody Conc (µg/ml) at 50% Inhibition; MT-2 microplaque neutralization, HIV-1 UG029 (PBL), clade A [1]: 1.1 µg/mL
- Antibody Conc (µg/ml) at 50% Inhibition; MT-2 microplaque neutralization, HIV-1 VL135 (PBL), clade B [1]: 0.48 µg/mL
- fold reduction in binding compared to the chimeric antibody [2]: 5 fold

B2: chimeric B4 antibody (antibody, human IgG1, V domains shown)
VH: QVQLQQSGPELVKPGASVRMSCKASGYTFTDYVIHWVKQRTGQGLEWIGEIYPGSGSAYSNAKFKDKATLTADKSSNTAYMQLSSLTSEDSAVYFCARRGNGTGFAYWGQGTLVTVSA
VL: DIVLTQSPASLAVSLGQRATISCKAGQSVDYDGDSYMNWYQQKPGQPPKLLIYVASNLESGIPARFSGSGSGTDFTLNIHPVEEEDAATYYCQQSYKDPLTFGAGTKLELK
notes: Fully murine B4 variable regions joined to human IgG1 and human kappa constant regions; also called B4 chimeric antibody; chimeric antibody
- fold reduction in A492 compared to the original mouse antibody [3]: 10 fold
